For test [1], the target named is insulin/IGF-I hybrid receptor isoform A (Hybrid-RsA) (UniProt P08069). Nature of the test: displacement of 125I-IGF1 from immunocaptured Hybrid-RsA. (In general: Displacement assays read how much labelled ligand stays bound in the presence of the test substance.)
Test [2] addresses T1, extracellular domain of human insulin-like growth factor-1 receptor (hIGF-IR) (human, UniProt P08069 31-935).
T1 construct: extracellular domain; also called hIGF1-R; Human Insulin-Like Growth Factor I soluble Receptor (R & D Systems #391-GR)
Nature of the test: ELISA on coated soluble IGF-IR, cos7 supernatants. In general terms: ELISA stands for enzyme-linked immunosorbent assay.

Test [3] addresses T1, extracellular domain of human …. The test is described as follows: SPR (BIAcore X), antibody captured by anti-Fc on a CM5 chip, hIGF-IR extracellular domain as analyte at 12.5-200 nM, 25°C. A general note: In SPR one partner is held on a chip, and binding of the other changes the refractive index at the surface.

Changes are numbered by the printed parent chain.

On to monoclonal antibody 1H7, for which the IC50 (in general, the concentration that inhibits the measured activity by half) in test [1] was below 50000 pM.

B1: humanized 7C10 VL 2 combined with humanized 7C10 VH 2 (antibody, human IgG1, V domains shown)
VH: QVQLQESGPGLVKPSETLSLTCTVSGYSITGGYLWNWIRQPPGKGLEWIGYISYDGTNNYKPSLKDRVTISRDTSKNQFSLKLSSVTAADTAVYYCARYGRVFFDYWGQGTLVTVSS
VL: DIVMTQSPLSLPVTPGEPASISCRSSQSIVHSNGNTYLQWYLQKPGQSPQLLIYKVSNRLYGVPDRFSGSGSGTDFTLKISRVEAEDVGVYYCFQGSHVPWTFGQGTKVEIK
notes: Human IgG1/kappa, cos7 supernatant; also called 7C10 hum 2 heavy chain with humanized 7C10 VL 2
Regarding B1, in test [2], the binding result was “binds”.

B2: A2CHM Mab (antibody, V domains shown)
VH: B1 VH with T30S, R72V
VL: B1 VL
Regarding B2, binding in test [3] was put at a Kd of 860 pM.

B3: humanized 7C10 VL 2 combined with humanized 7C10 VH 3 (antibody, human IgG1, V domains shown)
VH: B1 VH with T30S, R72V
VL: B1 VL
notes: Human IgG1/kappa, cos7 supernatant; also called 7C10 hum 3 heavy chain with humanized 7C10 VL 2
Consider B3, for which, in test [2], the binding result was “binds”.
